Measured values: PMC5919683, “Transcription factor HAT1 is a substrate of SnRK2.3 kinase and negatively regulates ABA synthesis and signaling in Arabidopsis responding to drought” (PLoS Genetics, 2018)
Blank lines part the entries; values can stand above or below the binder they belong to.

Legend:
MBP-HAT1 = biological target: T1, MBP-HAT1 (Arabidopsis thaliana (Col-0), UniProt P46600 1-282); experiment: EMSA; EMSA: 25 mM HEPES-KOH pH 8.0, 50 mM KCl, 1 mM DTT, 10% glycerol, 20 uL, ~1 ng probe, 30 min on ice; 5% native PAGE, 1x TGE pH 8.7; settings: protein: recombinant; tags: MBP (pETMALc-H); chain copies: 2
T1 sequence: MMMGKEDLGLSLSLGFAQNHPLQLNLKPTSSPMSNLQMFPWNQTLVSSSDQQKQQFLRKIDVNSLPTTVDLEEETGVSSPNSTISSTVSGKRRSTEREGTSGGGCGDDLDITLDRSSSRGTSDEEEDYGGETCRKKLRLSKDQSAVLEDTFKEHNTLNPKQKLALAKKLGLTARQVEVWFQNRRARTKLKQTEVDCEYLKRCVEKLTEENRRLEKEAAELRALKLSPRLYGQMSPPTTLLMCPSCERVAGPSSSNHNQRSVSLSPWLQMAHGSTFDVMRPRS

GST-SnRK2.2 = biological target: T2, GST-SnRK2.2 (Arabidopsis thaliana, UniProt Q39192 1-362); experiment: pull-down; GST pull-down: GST or GST-SnRK2s as bait, MBP-tagged HAT1 or its domains detected by western blotting with anti-MBP antibody; settings: both partners purified
T2 construct: SnRK2.2 of Arabidopsis; coding region inserted into pGEX-6P-1; also called GST-SnRK2s; source: recombinant (pGEX-6P-1 vector); purification told only for GST-SnRK2.3
T2 sequence (looked up): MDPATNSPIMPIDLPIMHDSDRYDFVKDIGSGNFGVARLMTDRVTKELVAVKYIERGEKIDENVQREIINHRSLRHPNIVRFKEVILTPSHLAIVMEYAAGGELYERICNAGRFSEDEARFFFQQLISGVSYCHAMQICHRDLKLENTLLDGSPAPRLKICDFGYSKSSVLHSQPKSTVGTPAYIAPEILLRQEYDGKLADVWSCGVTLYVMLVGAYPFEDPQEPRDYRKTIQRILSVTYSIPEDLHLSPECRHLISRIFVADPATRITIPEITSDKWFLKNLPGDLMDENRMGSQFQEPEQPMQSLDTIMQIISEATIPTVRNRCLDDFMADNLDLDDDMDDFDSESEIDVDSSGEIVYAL

GST-SnRK2.3 = biological target: T3, GST-SnRK2.3 (Arabidopsis thaliana, UniProt Q39193 1-361); experiment: as above; settings: both partners purified
T3 construct: SnRK2.3 of Arabidopsis; coding region inserted into pGEX-6P-1; also called GST-SnRK2s; SnRK2.3 fused with GST; source: recombinant (pGEX-6P-1 vector), purified with glutathione beads (Sigma)
T3 sequence (looked up): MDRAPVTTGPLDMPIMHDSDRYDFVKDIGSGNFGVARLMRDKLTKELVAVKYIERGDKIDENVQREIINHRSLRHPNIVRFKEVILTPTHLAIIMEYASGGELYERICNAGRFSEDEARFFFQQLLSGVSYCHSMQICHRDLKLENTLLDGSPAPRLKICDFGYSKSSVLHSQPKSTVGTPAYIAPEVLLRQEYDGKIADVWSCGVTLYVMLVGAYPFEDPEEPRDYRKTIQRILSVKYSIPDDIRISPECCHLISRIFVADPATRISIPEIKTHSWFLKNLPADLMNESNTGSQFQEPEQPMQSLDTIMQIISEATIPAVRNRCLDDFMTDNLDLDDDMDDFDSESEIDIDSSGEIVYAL

GST-SnRK2.6 = biological target: T4, GST-SnRK2.6 (Arabidopsis thaliana, UniProt Q940H6 1-362); experiment: as above; settings: both partners purified
T4 construct: SnRK2.6 of Arabidopsis; coding region inserted into pGEX-6P-1; also called GST-SnRK2s; source: recombinant (pGEX-6P-1 vector); purification told only for GST-SnRK2.3
T4 sequence (looked up): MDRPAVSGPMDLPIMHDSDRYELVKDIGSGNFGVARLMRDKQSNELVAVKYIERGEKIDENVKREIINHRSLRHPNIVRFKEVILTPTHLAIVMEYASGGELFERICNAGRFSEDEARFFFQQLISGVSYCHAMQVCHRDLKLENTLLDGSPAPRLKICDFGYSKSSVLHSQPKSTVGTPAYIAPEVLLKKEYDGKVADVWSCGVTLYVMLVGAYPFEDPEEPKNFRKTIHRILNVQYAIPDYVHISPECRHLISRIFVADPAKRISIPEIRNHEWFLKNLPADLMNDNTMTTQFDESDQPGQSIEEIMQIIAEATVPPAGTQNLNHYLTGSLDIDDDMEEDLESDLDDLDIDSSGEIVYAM

B1: NCED3 N1 mutant probe (dsDNA)
DNA 1: AAACATTCGCTGGTCGTTGTTACTCTATTCTTCTAAA
DNA 2: TTTAGAAGAATAGAGTAACAACGACCAGCGAATGTTT
binding result (MBP-HAT1): no binding

B2: ABA3 A1 WT probe (dsDNA)
DNA 1: ATATTTAATTTAATAATTATTGGTTTAAACAAAATT
DNA 2: AATTTTGTTTAAACCAATAATTATTAAATTAAATAT
binding result (MBP-HAT1): binds

B3: NCED3 N1 WT probe (dsDNA)
DNA 1: AAAAATTCCAATTATTGTGTTACTCTATTCTTCTAAA
DNA 2: TTTAGAAGAATAGAGTAACACAATAATTGGAATTTTT
binding result (MBP-HAT1): binds

binding result (GST-SnRK2.2): binds
binding result (GST-SnRK2.3): binds
binding result (GST-SnRK2.6): binds
B4: MBP-HAT1 (natural protein, Arabidopsis thaliana, UniProt P46600 1-282, looked up)
chain: T1 sequence
notes: HAT1 of Arabidopsis thaliana; the HAT1 coding region amplified from Col-0 cDNA; The methods of the EMSA speak of recombinant proteins purified from E. coli; also called MBP-tagged HAT1; MBP-fusion HAT1 protein; source: recombinant (pETMALc-H vector), purified with amylose resin (NEB)

B5: ABA3 A1 mutant probe (dsDNA)
DNA 1: ATATTTAATTGCTGGTCGTTGGTTTAAACAAAATT
DNA 2: AATTTTGTTTAAACCAACGACCAGCAATTAAATAT
binding result (MBP-HAT1): no binding
